Results from the NTF2 design screens of Basanta et al. (2020).

Test: protease stability score; higher = more stable; yeast display proteolysis, trypsin and chymotrypsin;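 further: relative to predicted unfolded state with 0 unfolded-like and 1 meaning tenfold more protease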

Sequence | protease stability score
LEEKDEVHHIVDRLFKVLMTGDFEILRHLLDPDDRLKIDINGRQIDLHGREEVVHWVIHELRELRIELRVKRVHHTENHYVADTRLHIRQGDKEFVHETEWRILIIDGKNKEWRIIVH | 1.38
LEFEEHLHRWVNFYLNVHRTGDEEHIEKLADPDMRIEVGDKELHGRERAYEFWRRYLEEARLHDMKIRSVELVGDKIILDTEIHSIVGDKHIRERLEIILTKINGRWMLKSMRVQ | 1.45
LESEEDLREAIRILIEDLRTGDEDSLHNLLDPNVRIDVNGVKLHGMEWVSHTIRHLGVKHTYVINRRIKIQGNKVDIDGEFNLRYDGKEERRRITLHVQKIDGVWVIEEITIR | 0.971
NDDQKELEHIMKLLSRALETGDEEKLRELFDPHTRIHINGVTRIGWEHMKHHFEDLGLSNFHFHLRVRHFDVQGDKARVEGELVVNFNGKETSHDVEWRLEKVNGRWIVKSIIVG | 2.27
NDEEQVAHKFFEKLMHALLTGDEERLKELHDPDVRVDYGNFKLVGREKMVEFWHRFLEEIRLRNTHIETYHIFDGRLEIHSRIHIEVDGKIRIMEVYLEVRKIDGKWRLTHVEFR | 1.68
NDIEQIVREVLELIYHAIATGDWEHIYKNADPNVKYEQGDKEFHGREILSEMIVHIRLRDLELNRLHIVGDKVHIHGHFHMDINGRERLVKTEYIIRKVDGQWRLESLIIR | 1.23
NDLEERTKKAAEELREMHKTGDEELWLKNMDPNVRLEIIIGDKLLIFHGREKWREWFHKYKNARHEDNDEHVQGDKTRINVHIVFNGRRVDVEITLRVIDGRVHSEHINII | 1.45
NDLERDAEHMLKLLIEAHLTGNEDIFEEFMDPNTRLVVGDKDNHGREFAEDYFKEWRVKHVRLKHYRSIGNYVEFDTETNVHVNGRDIRTETKITIVKIDGRWLLKVLIFG | 1.72
NEDDHIMEELTRIFIQNLRTGNEEEWAKYADPDTRLDFNGVDIIGRESILHWLKHMLTELRFTKIIFHHINAVNGRIHLDVEQHVEVGDKSQTIRSEIHIRVVNGVIKREYYRYK | 0.092
NEDDKHAKHLLDLLIRTFITGDEHTLMNLLDPHTRYHQGEKELHGMEMLLHVERHHGATVHHFHVKSVRVIGDKIQFHVHVDHTIDGKRIRTDIDLWMEKVDGRWIVREIRIH | 0.815
NEDEDKMKEWIETLHKSLETGDEKTLSKLFDPRVQYDIGDKKYHGWRHYLELILRIDHERREIHHVEVVNGRVEIDVRVHIHINGQDYEKKTILHVEKIDGKWLNKKVQIV | 1.16
NEDEDWLRKVLHLLLHAAETGDEEILLHLLDPNARFIQGDKFKVGMDILETWIRKIKNLRIHDFELKDMRVYNGRIEVDGHLDRIINGQRERTDIILFLLKVDGRWYFEEIRIS | 2.09
NEDEEAHHKLIKEYSRLVDTGDWRSLRRYLDPDYRLRVDGVDIVGRDELHRILEQMLDRVDHLHLNIERHRIQGDFLISDVKHHYEFNGKHVERKVIIYIWKFDGRWIMRYTEVL | 1.02
NEDEEEARRWLEFFIKLYETGDEHMLEKMIDPDTRSYIDGKEFVGREEIRKLLRHLRIEHIHVKRFRAVNGKIDFDTHIVGEFNGRRKNTDVHIRATKIDGQWYLHEVDWK | 1.64
NEDEEHFKKWFEKYLRSLRTGDEENTRKLFDPHVRIEFENHELHGWENAVRFFRELHHRADVIHLELHDYTIVGDYVYIDVIVHLIYNGREFRHDVKIDASKIDGQWRIESLSIK | 1.64
NEDEEIVRERFEEFLDMMFTGDWTSLEKLLDPHYRLDIGDKHHHGREEFIEFVRKIKNLRIDIKRVSVIVIDGRAINHVDGVLHFNGKTEKVHIIVVAKKIDGRWIVERVTIETH | 2.08
NEDEEIWRKAHEFMIHAMKTGDEDVEKSLFDPHTRFEQGDKELHGREMIEHLLRLLRERFPNVQIRRMEIQHWDHFNGVLIEFGELRVDVNGRTVSLRIIIYAEKINGQWHVKRVEFD | 1.52
NEDEEKAKRFVKTYVHSLVTGDWKLWSEMADPNMILIYGDKTFIGREHFEEFFRRHIEELRFDSFHVDHVEIQGDKAELESRVSVIINGVERELETNMFLHKVDGRWLLTKFEVH | 2.08

Sequence | protease stability score
NEDEEMIKTAIELLLRTWKTGDEHSLTELLDPHVRVHINGVDLHGRHAIHWLSRHMRFEEIRVDHFEIVNGRVHLETKVRIHYGDKSDTVESHVISLKVDGKWKTQRVQYH | 0.954
NEDEENMKKLLEDFLESLLTGDFDKLTRLADPHARIVQGDKELHGRDEIHEFWKRTMEHIRITHSYVREIDIINGRLHTDIHWDLQVGDKRYSHRVELILLKIDGKWVLHEVEFR | 1.27
NEDEESAERAVHLLRELIYTGDEDRMLKYADPNVKIVFNGVEMHGMDTFLRVFHRIKNLTIRRIHIDHIHLQGDKIELNVRMDTEFNGRHHDDSIHIRTLKVDGVWINHRTEYV | 1.04
NEDEESIRRAVEHWSKLILTGDESLLRQMADPNVRIQVGDKRIIGMDSLVKLMEDLGWEMEIRTKIRHTEIINGKMHTRTQLDIHFRQGDKKVDIHRDTEIVIEKVDGRWHIHSIRIE | 0.752
NEDEEVERKWLEFIRHALHTGDERILHELLDPHAQLIYGDKHIIGREEMTRQFIELGVDHMEDKRVHHQGDKIHQDGTEHVNGKERKVRFVVAKVNGRWIWERMHVI | 1.03
NEDEEWIHKFWETLRKNIETGNEEEIEKLFDPNTRVEIGDKIIHGRRFIEHLKERADHVEEVHFQHKHIEIQGDKVQVHGELDHDIRIGDKRHRLRLDIIIILKKYNGRWHVHSFIIT | 1.2
NEDEEYVRLAHEILVETLRTGDEHITKRLADPHVRIDVGDKELHGWEDWLELLTHEARHLRTEIRVRNFDSQGDFIRVEVIIIIVVNGKRIEREVHYFSLKVDGRWLLTHVEIK | 0.242
NEDEHRARFIFRILTKAILTGDEDFLHRFADPNVRIHVNGVNLIGMEEWLRHLKELRIHFITSHVREIDKIDGVMIVHGEFVIDGEVNGKRDTWHTEIHLVITKVNGRWILHELHTR | 2.58
NEDEKILEEAARLLFKALHTGDETTMLRLLDPNVRLHINGRDLIGREEMDRWWQELGLERISVHLDHLETHYIGNKIEIYIRGTVEFNGVRREIDVHNHALKVNGRWELKNVEIRHR | 0.893
NEDEKLAEDAIQEYRHSVKTGDENFLKHLADPDVRMDYNGREYHGREEWEKFLRNILRHLRPKDFRIKHFDYYGDYMHFEGLHVGQINGKETHLHTEIIFLKINGRWHLRSIRIE | 0.401
NEDEREFRIFLELFILAMRTGDETTFKKLLDPDVKFRINGKEYHGWEEVWHVLEEIRIHDIKLTDMERVGDKLHLITRVEGEFDGRRHEIDTRLHVRKIDGRWLLRTVEIS | 2.13
NEDERETELFLRLFRRALLTGDWRAIEDLMDPNVMIHVNGREFHGREQYYKIVMNELTHWRLHHTKIDDIRLYDGVLRVQLRLQGEINGREDFLHLHVIIEKIDGKWIFRSVEIR | 1.91
NEDERLIKEFWRLLQEALKTGNWEMIAELIDPHVRIDIGDKQIHGREEFIKLVDHIRFDDVKTELKTVHVFDGRVEVRGHLTVHKTFNGQKIDERTDVNLDIEKINGVWYMTYVRIE | 2.06
NEDHDVLNDLMTDHVHAVLTGDFRTLIHNIDPHTRVDINGVHFHGREEAVHLFEDLANRVPGVKLDVEEWRTYGDKLRSNVRWHFDGRTIDIHLVFLKINGKWLLESVKIN | 1.9
NEEDEFMEVAVELMERTLKTGDERLLSELVDPNARIEFNGREWHGRKFLETLWRELTKKFPNMKVMFKIEYINSFEGHIEIEGILESNFDGRVESRRVHYNVSKINGRWIIEEIEIQ | 1.35
NEEEDINHHIVELFFHLLHTGDWEELEKLADPHARLEINGRRFHGRENVVTQLWELLHRIDHVEIRDLRVQGDKVHVDTRLRIGDKEKKTEWDIVVVNGKIKRSRVRVH | 2.02
NEEEEDMEHATKEHMELWRTGDEKRITELADPNVRVHVGEKEYHGREKLSEHIMRLGFDHVELTHFDVQGEKVISHIRVRFNGRDIEFLLIVLKVDGRWYEEQVNIRVS | 0.66
NEEEEEIKTLSEEILRAWMTGDFDHLRDMMDPNTKLDINGKEVHGREILINLLRKIMEDLGVKHIHIRHKEHQGNWTHLDERQIVGDKRINVHYIWVVVDGRIHSIRIEMR | 1.16
